This series concerns Escherichia coli TOP10. In words: shrunken log2 fold change of peptide-encoding DNA abundance (4.5 h post-induction vs induction); higher = less antimicrobial activity (less host growth inhibition). As to conditions: time post-induction: 4.5 h; library: site-saturation at positions 5, 18, 19, 20.
For the sequence RRIRWRPPRLPRPRPRPFCNPRP, the “shrunken log2 fold change” value is -0.24.

As to RRIRFRPPRLPRPRPRPYRSPRP, the “shrunken log2 fold change” value was -0.975.

Consider RRIRNRPPRLPRPRPRPEPCPRP, for which the “shrunken log2 fold change” value is -0.0302.

In the case of RRIRDRPPRLPRPRPRPRKPPRP, the “shrunken log2 fold change” value came to 0.39.

In the case of RRIRTRPPRLPRPRPRPAWSPRP, the “shrunken log2 fold change” value amounted to 0.358.

Turning to RRIRGRPPRLPRPRPRPFQAPRP, the “shrunken log2 fold change” value amounted to 0.112.

In the case of RRIRVRPPRLPRPRPRPQAPPRP, the “shrunken log2 fold change” value was determined as 0.167.

With RRIRVRPPRLPRPRPRPFHHPRP, the “shrunken log2 fold change” value was -0.182.

For the sequence RRIRYRPPRLPRPRPRPLPDPRP, the “shrunken log2 fold change” value was -0.108.

Consider RRIRSRPPRLPRPRPRPHLYPRP, for which the “shrunken log2 fold change” value was -0.02.

In the case of RRIRERPPRLPRPRPRPQGLPRP, the “shrunken log2 fold change” value was -0.141.

Regarding RRIRSRPPRLPRPRPRPWATPRP, the “shrunken log2 fold change” value was -0.102.

Consider RRIRDRPPRLPRPRPRPWDFPRP, for which the “shrunken log2 fold change” value worked out at 0.238.

With RRIRPRPPRLPRPRPRPAHDPRP, the “shrunken log2 fold change” value worked out at 6.73e-05.

Regarding RRIRERPPRLPRPRPRPVIKPRP, the “shrunken log2 fold change” value is -0.201.

Regarding RRIRFRPPRLPRPRPRPFGDPRP, the “shrunken log2 fold change” value was -0.19.

As for RRIRWRPPRLPRPRPRPIMNPRP, the “shrunken log2 fold change” value was -0.473.

Consider RRIRDRPPRLPRPRPRPEHSPRP, for which the “shrunken log2 fold change” value is -0.027.

As to RRIRYRPPRLPRPRPRPMAQPRP, the “shrunken log2 fold change” value is -0.0848.

As to RRIRWRPPRLPRPRPRPAINPRP, the “shrunken log2 fold change” value was found to be 0.185.

Regarding RRIRKRPPRLPRPRPRPWYKPRP, the “shrunken log2 fold change” value is -0.0194.

With RRIRERPPRLPRPRPRPWSVPRP, the “shrunken log2 fold change” value was -0.113.

Consider RRIRDRPPRLPRPRPRPMRLPRP, for which the “shrunken log2 fold change” value worked out at 0.674.

On to RRIRTRPPRLPRPRPRPFVHPRP, for which the “shrunken log2 fold change” value was -0.138.

Take RRIRHRPPRLPRPRPRPSMKPRP: the “shrunken log2 fold change” value is -0.436.

As for RRIRHRPPRLPRPRPRPAAHPRP, the “shrunken log2 fold change” value was 0.274.

With RRIRKRPPRLPRPRPRPVFCPRP, the “shrunken log2 fold change” value was -0.126.

As to RRIRRRPPRLPRPRPRPTLLPRP, the “shrunken log2 fold change” value amounted to 0.465.

As to RRIRTRPPRLPRPRPRPCPVPRP, the “shrunken log2 fold change” value is -0.175.

With RRIRTRPPRLPRPRPRPLDPPRP, the “shrunken log2 fold change” value is -0.382.

For the sequence RRIRKRPPRLPRPRPRPTYAPRP, the “shrunken log2 fold change” value came out at 0.431.

Regarding RRIRDRPPRLPRPRPRPVHQPRP, the “shrunken log2 fold change” value is -0.0516.

Consider RRIRYRPPRLPRPRPRPEQFPRP, for which the “shrunken log2 fold change” value was -0.14.

Consider RRIRWRPPRLPRPRPRPVTFPRP, for which the “shrunken log2 fold change” value is -0.186.

For the sequence RRIRYRPPRLPRPRPRPFEEPRP, the “shrunken log2 fold change” value was -0.0344.

For the sequence RRIRPRPPRLPRPRPRPGTIPRP, the “shrunken log2 fold change” value was -0.171.

Turning to RRIRGRPPRLPRPRPRPDIDPRP, the “shrunken log2 fold change” value is 2.17.

For RRIRNRPPRLPRPRPRPGGKPRP, the “shrunken log2 fold change” value was -0.101.

Regarding RRIRGRPPRLPRPRPRPVPGPRP, the “shrunken log2 fold change” value worked out at 0.742.

For the sequence RRIRGRPPRLPRPRPRPHAMPRP, the “shrunken log2 fold change” value was determined as 0.171.

With RRIRDRPPRLPRPRPRPIFTPRP, the “shrunken log2 fold change” value is -0.0502.

Regarding RRIRARPPRLPRPRPRPLGFPRP, the “shrunken log2 fold change” value came to 0.644.

On to RRIRIRPPRLPRPRPRPTVAPRP, for which the “shrunken log2 fold change” value was 0.334.

As for RRIRNRPPRLPRPRPRPAIMPRP, the “shrunken log2 fold change” value is -0.0978.

In the case of RRIRERPPRLPRPRPRPRLNPRP, the “shrunken log2 fold change” value was -0.156.

With RRIRTRPPRLPRPRPRPYNFPRP, the “shrunken log2 fold change” value is 0.0438.

Turning to RRIRCRPPRLPRPRPRPWPFPRP, the “shrunken log2 fold change” value is -0.121.

Regarding RRIRRRPPRLPRPRPRPHIPPRP, the “shrunken log2 fold change” value is -0.126.

For RRIRIRPPRLPRPRPRPWNDPRP, the “shrunken log2 fold change” value was -0.216.

Consider RRIRNRPPRLPRPRPRPNQVPRP, for which the “shrunken log2 fold change” value is -0.255.

Turning to RRIRCRPPRLPRPRPRPNWMPRP, the “shrunken log2 fold change” value is -0.805.

Take RRIRDRPPRLPRPRPRPFTSPRP: the “shrunken log2 fold change” value is -0.0273.

As to RRIRYRPPRLPRPRPRPPRNPRP, the “shrunken log2 fold change” value was 0.142.

Take RRIRERPPRLPRPRPRPFMCPRP: the “shrunken log2 fold change” value is -0.158.

Consider RRIRIRPPRLPRPRPRPHLIPRP, for which the “shrunken log2 fold change” value is -0.245.

Regarding RRIRGRPPRLPRPRPRPNTKPRP, the “shrunken log2 fold change” value is -0.066.

For RRIRRRPPRLPRPRPRPELHPRP, the “shrunken log2 fold change” value is 0.793.

On to RRIRWRPPRLPRPRPRPGWPPRP, for which the “shrunken log2 fold change” value was 0.644.

For the sequence RRIRERPPRLPRPRPRPHQFPRP, the “shrunken log2 fold change” value amounted to 0.00386.

As to RRIRRRPPRLPRPRPRPNTVPRP, the “shrunken log2 fold change” value was -0.107.

For RRIRSRPPRLPRPRPRPLAMPRP, the “shrunken log2 fold change” value came out at 0.087.

Consider RRIRQRPPRLPRPRPRPQNSPRP, for which the “shrunken log2 fold change” value is -0.0328.

Take RRIRPRPPRLPRPRPRPKFWPRP: the “shrunken log2 fold change” value turned out to be 0.414.

Take RRIRHRPPRLPRPRPRPCGVPRP: the “shrunken log2 fold change” value was -0.00991.

RRIRNRPPRLPRPRPRPCRNPRP: the “shrunken log2 fold change” value was -0.437.

In the case of RRIRWRPPRLPRPRPRPTHEPRP, the “shrunken log2 fold change” value worked out at 0.219.

As to RRIRNRPPRLPRPRPRPWTQPRP, the “shrunken log2 fold change” value is -0.0178.

Regarding RRIRCRPPRLPRPRPRPDKRPRP, the “shrunken log2 fold change” value stood at 0.00837.

Turning to RRIRLRPPRLPRPRPRPCCLPRP, the “shrunken log2 fold change” value was -0.293.

On to RRIRHRPPRLPRPRPRPKEIPRP, for which the “shrunken log2 fold change” value is -0.00142.

In the case of RRIRIRPPRLPRPRPRPETHPRP, the “shrunken log2 fold change” value was -0.413.

RRIRDRPPRLPRPRPRPVDWPRP: the “shrunken log2 fold change” value was 0.812.

With RRIRKRPPRLPRPRPRPYQHPRP, the “shrunken log2 fold change” value was -0.0857.

Consider RRIRRRPPRLPRPRPRPHCDPRP, for which the “shrunken log2 fold change” value was -0.164.

RRIRTRPPRLPRPRPRPPEGPRP: the “shrunken log2 fold change” value turned out to be 0.308.

On to RRIRERPPRLPRPRPRPRGLPRP, for which the “shrunken log2 fold change” value turned out to be 0.159.

For RRIRTRPPRLPRPRPRPYDYPRP, the “shrunken log2 fold change” value was -0.00193.

Regarding RRIRCRPPRLPRPRPRPFKFPRP, the “shrunken log2 fold change” value is -0.788.

Take RRIRYRPPRLPRPRPRPSHPPRP: the “shrunken log2 fold change” value was -0.639.

In the case of RRIRIRPPRLPRPRPRPMWYPRP, the “shrunken log2 fold change” value is -0.554.

As for RRIRPRPPRLPRPRPRPLMAPRP, the “shrunken log2 fold change” value amounted to 0.213.

On to RRIRQRPPRLPRPRPRPGEPPRP, for which the “shrunken log2 fold change” value is -0.00996.

As for RRIRSRPPRLPRPRPRPYRPPRP, the “shrunken log2 fold change” value was -0.365.

Consider RRIRLRPPRLPRPRPRPATGPRP, for which the “shrunken log2 fold change” value was found to be 0.13.

As to RRIRIRPPRLPRPRPRPYWHPRP, the “shrunken log2 fold change” value was -0.718.

On to RRIRRRPPRLPRPRPRPVNVPRP, for which the “shrunken log2 fold change” value was -0.0902.

Take RRIRGRPPRLPRPRPRPAIRPRP: the “shrunken log2 fold change” value came out at 0.768.

On to RRIRARPPRLPRPRPRPWWNPRP, for which the “shrunken log2 fold change” value is -0.108.

As to RRIRVRPPRLPRPRPRPLEGPRP, the “shrunken log2 fold change” value turned out to be 0.138.

RRIRCRPPRLPRPRPRPEQMPRP: the “shrunken log2 fold change” value turned out to be 0.45.

With RRIRGRPPRLPRPRPRPSKSPRP, the “shrunken log2 fold change” value was -0.0596.

In the case of RRIRQRPPRLPRPRPRPEDVPRP, the “shrunken log2 fold change” value is -0.0612.

Consider RRIRWRPPRLPRPRPRPYSVPRP, for which the “shrunken log2 fold change” value was -0.55.

On to RRIRRRPPRLPRPRPRPMMMPRP, for which the “shrunken log2 fold change” value worked out at 0.0332.

As for RRIRARPPRLPRPRPRPMTRPRP, the “shrunken log2 fold change” value was determined as 0.849.

As to RRIRHRPPRLPRPRPRPNVLPRP, the “shrunken log2 fold change” value is -0.0715.

With RRIRYRPPRLPRPRPRPYWRPRP, the “shrunken log2 fold change” value is 0.0608.

RRIRCRPPRLPRPRPRPANMPRP: the “shrunken log2 fold change” value is -0.277.

On to RRIRVRPPRLPRPRPRPENWPRP, for which the “shrunken log2 fold change” value is 0.131.

As for RRIRVRPPRLPRPRPRPSECPRP, the “shrunken log2 fold change” value worked out at 0.0274.

For RRIRSRPPRLPRPRPRPTSDPRP, the “shrunken log2 fold change” value is -0.00252.

In the case of RRIRQRPPRLPRPRPRPHEFPRP, the “shrunken log2 fold change” value was -0.287.

As for RRIRERPPRLPRPRPRPTPMPRP, the “shrunken log2 fold change” value came out at 0.0913.

Regarding RRIRCRPPRLPRPRPRPQDQPRP, the “shrunken log2 fold change” value is -0.101.

On to RRIRSRPPRLPRPRPRPQIPPRP, for which the “shrunken log2 fold change” value was -0.538.

In the case of RRIRGRPPRLPRPRPRPLFKPRP, the “shrunken log2 fold change” value is 0.337.

On to RRIRWRPPRLPRPRPRPFMMPRP, for which the “shrunken log2 fold change” value is -0.587.

In the case of RRIRVRPPRLPRPRPRPTLWPRP, the “shrunken log2 fold change” value is 0.259.

Take RRIRYRPPRLPRPRPRPAQTPRP: the “shrunken log2 fold change” value worked out at 0.0654.

As to RRIRKRPPRLPRPRPRPWVAPRP, the “shrunken log2 fold change” value was 0.282.

In the case of RRIRNRPPRLPRPRPRPWMEPRP, the “shrunken log2 fold change” value was -0.00208.

Turning to RRIRERPPRLPRPRPRPLMYPRP, the “shrunken log2 fold change” value was -0.0754.

For RRIRYRPPRLPRPRPRPEGPPRP, the “shrunken log2 fold change” value was 0.12.

Turning to RRIRNRPPRLPRPRPRPCAEPRP, the “shrunken log2 fold change” value is -0.169.

Take RRIRCRPPRLPRPRPRPFGTPRP: the “shrunken log2 fold change” value is -0.256.

With RRIRWRPPRLPRPRPRPNPFPRP, the “shrunken log2 fold change” value came out at 0.208.

Turning to RRIRGRPPRLPRPRPRPRVSPRP, the “shrunken log2 fold change” value is 0.45.

Turning to RRIRWRPPRLPRPRPRPPMNPRP, the “shrunken log2 fold change” value is -0.0715.

For RRIRFRPPRLPRPRPRPTYWPRP, the “shrunken log2 fold change” value came out at 0.385.

Turning to RRIRGRPPRLPRPRPRPVYAPRP, the “shrunken log2 fold change” value worked out at 0.0566.

In the case of RRIRRRPPRLPRPRPRPNCVPRP, the “shrunken log2 fold change” value worked out at 0.245.

As for RRIRSRPPRLPRPRPRPTIIPRP, the “shrunken log2 fold change” value is -0.35.

In the case of RRIRLRPPRLPRPRPRPEDIPRP, the “shrunken log2 fold change” value is -0.539.

As to RRIRIRPPRLPRPRPRPCAHPRP, the “shrunken log2 fold change” value stood at 0.0482.

For the sequence RRIRKRPPRLPRPRPRPMRMPRP, the “shrunken log2 fold change” value was 1.84.

The record behind these values is the supplement of paper PMC9112550, “Optimization of the antimicrobial peptide Bac7 by deep mutational scanning” (BMC Biology, 2022).
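Note: peptides expressed intracellularly from a pBAD plasmid library in pooled LB shake-flask culture, induced with 0.3% L-arabinose, DNA abundance read by NGS, three biological replicates, DESeq2 with apeglm shrinkage.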
